Data as given in patent US20220175839.

What was measured:
Test in all cases: cell_activity
TALEN 103094 (synthetic) = conditions: pair with 103093; K562, 400 ng
TALEN 103104 (synthetic) = conditions: pair with 103103; K562, 400 ng
TALEN 103105 (synthetic) = conditions: pair with 103106; K562, 400 ng
TALEN 103117 (synthetic) = conditions: pair with 103118; K562, 400 ng
TALEN 103095 (synthetic) = conditions: pair with 103096; K562, 400 ng
TALEN 103097 (synthetic) = conditions: pair with 103098; K562, 400 ng
TALEN 103113 (synthetic) = conditions: pair with 103114; K562, 400 ng
TALEN 103096 (synthetic) = conditions: pair with 103095; K562, 400 ng
TALEN 103106 (synthetic) = conditions: pair with 103105; K562, 400 ng
TALEN 103112 (synthetic) = conditions: pair with 103111; K562, 400 ng
TALEN 103116 (synthetic) = conditions: pair with 103115; K562, 400 ng
TALEN 103118 (synthetic) = conditions: pair with 103117; K562, 400 ng
TALEN 103109 (synthetic) = conditions: pair with 103110; K562, 400 ng
TALEN 103107 (synthetic) = conditions: pair with 103108; K562, 400 ng
TALEN 103099 (synthetic) = conditions: pair with 103100; K562, 400 ng
TALEN 103103 (synthetic) = conditions: pair with 103104; K562, 400 ng
TALEN 103111 (synthetic) = conditions: pair with 103112; K562, 400 ng
TALEN 103102 (synthetic) = conditions: pair with 103101; K562, 400 ng
TALEN 103101 (synthetic) = conditions: pair with 103102; K562, 400 ng
TALEN 103100 (synthetic) = conditions: pair with 103099; K562, 400 ng
TALEN 103119 (synthetic) = conditions: pair with 103120 (not in Table 2B); K562, 400 ng
TALEN 103092 (synthetic) = conditions: pair with 103091; K562, 400 ng
TALEN 103098 (synthetic) = conditions: pair with 103097; K562, 400 ng
TALEN 103089 (synthetic) = conditions: pair with 103090; K562, 400 ng
TALEN 103091 (synthetic) = conditions: pair with 103092; K562, 400 ng
TALEN 103088 (synthetic) = conditions: pair with 103087; K562, 400 ng
TALEN 103093 (synthetic) = conditions: pair with 103094; K562, 400 ng
TALEN 103115 (synthetic) = conditions: pair with 103116; K562, 400 ng
TALEN 103090 (synthetic) = conditions: pair with 103089; K562, 400 ng
TALEN 103108 (synthetic) = conditions: pair with 103107; K562, 400 ng
TALEN 103110 (synthetic) = conditions: pair with 103109; K562, 400 ng
TALEN 103114 (synthetic) = conditions: pair with 103113; K562, 400 ng

“CTTGCTGAAAGACAAGTCTGA (double strand) [TALEN 103094 site]” showed an activity (TALEN 103094 (synthetic)) of 20.2 % indel.

Sequence “ATACTCATCTTTTTCAGTGGG (double strand) [TALEN 103104 site]” has an activity (TALEN 103104 (synthetic)) of 44.9 % indel.

“CTACACTGAATTCACCCCCAC (double strand) [TALEN 103105 site]” gave an activity (TALEN 103105 (synthetic)) of 14.2 % indel.

With “GTGTGAACCATGTGACTTTGT (double strand) [TALEN 103117 site]” the activity (TALEN 103117 (synthetic)) was 45.7 % indel.

For “TTCAGACTTGTCTTTCAGCAA (double strand) [TALEN 103095 site]”, the activity (TALEN 103095 (synthetic)) was 42 % indel.

“CTTGTCTTTCAGCAAGGACTG (double strand) [TALEN 103097 site]” gave an activity (TALEN 103097 (synthetic)) of 52 % indel.

“ATGAGTATGCCTGCCGTGTGA (double strand) [TALEN 103113 site]” gave an activity (TALEN 103113 (synthetic)) of 26.6 % indel.

For “GTGTAGTACAAGAGATAGAAA (double strand) [TALEN 103096 site]”, the activity (TALEN 103096 (synthetic)) was 42 % indel.

“TTCACACGGCAGGCATACTCA (double strand) [TALEN 103106 site]” gave an activity (TALEN 103106 (synthetic)) of 14.2 % indel.

Sequence “CTGTGACAAAGTCACATGGTT (double strand) [TALEN 103112 site]” has an activity (TALEN 103112 (synthetic)) of 26.5 % indel.

With “TTAACTATCTTGGGCTGTGAC (double strand) [TALEN 103116 site]” the activity (TALEN 103116 (synthetic)) was 66.1 % indel.

Sequence “TTACCCCACTTAACTATCTTG (double strand) [TALEN 103118 site]” has an activity (TALEN 103118 (synthetic)) of 45.7 % indel.

With “ATTCACCCCCACTGAAAAAGA (double strand) [TALEN 103107/103109 site]” the activity (TALEN 103109 (synthetic)) was 8 % indel and the activity (TALEN 103107 (synthetic)) was 4.2 % indel.

“CTTTCAGCAAGGACTGGTCTT (double strand) [TALEN 103099 site]” was tested, and the activity (TALEN 103099 (synthetic)) was 15.3 % indel.

“CTATCTCTTGTACTACACTGA (double strand) [TALEN 103103 site]” was tested, and the activity (TALEN 103103 (synthetic)) was 44.9 % indel.

“CTGAAAAAGATGAGTATGCCT (double strand) [TALEN 103111 site]” showed an activity (TALEN 103111 (synthetic)) of 26.5 % indel.

In the case of “TTTTTCAGTGGGGGTGAATTC (double strand) [TALEN 103102 site]”, the activity (TALEN 103102 (synthetic)) is reported as 15.5 % indel.

“CTGGTCTTTCTATCTCTTGTA (double strand) [TALEN 103101 site]” showed an activity (TALEN 103101 (synthetic)) of 15.5 % indel.

With “GTGAATTCAGTGTAGTACAAG (double strand) [TALEN 103100 site]” the activity (TALEN 103100 (synthetic)) was 15.3 % indel.

Sequence “ATGTGACTTTGTCACAGCCCA (double strand) [TALEN 103119 site]” has an activity (TALEN 103119 (synthetic)) of 57.7 % indel.

For “GTCTGAATGCTCCACTTTTTC (double strand) [TALEN 103092 site]”, the activity (TALEN 103092 (synthetic)) was 48.5 % indel.

For “ATTCAGTGTAGTACAAGAGAT (double strand) [TALEN 103098 site]”, the activity (TALEN 103098 (synthetic)) was 52 % indel.

Work on “TTGAAGTTGACTTACTGAAGA (double strand) [TALEN 103089 site]” yielded an activity (TALEN 103089 (synthetic)) of 16.1 % indel.

With “GTTGACTTACTGAAGAATGGA (double strand) [TALEN 103091 site]” the activity (TALEN 103091 (synthetic)) was 48.5 % indel.

Sequence “CTTTTTCAATTCTCTCTCCAT (double strand) [TALEN 103088 site]” has an activity (TALEN 103088 (synthetic)) of 10.5 % indel.

“ATGGAGAGAGAATTGAAAAAG (double strand) [TALEN 103093 site]” was tested, and the activity (TALEN 103093 (synthetic)) was 20.2 % indel.

“GTATGCCTGCCGTGTGAACCA (double strand) [TALEN 103115 site]” was tested, and the activity (TALEN 103115 (synthetic)) was 66.1 % indel.

With “ATGCTCCACTTTTTCAATTCT (double strand) [TALEN 103090 site]” the activity (TALEN 103090 (synthetic)) was 16.1 % indel.

Work on “GTCACATGGTTCACACGGCAG (double strand) [TALEN 103108/103110 site]” yielded an activity (TALEN 103108 (synthetic)) of 4.2 % indel and an activity (TALEN 103110 (synthetic)) of 8 % indel.

For “CTATCTTGGGCTGTGACAAAG (double strand) [TALEN 103114 site]”, the activity (TALEN 103114 (synthetic)) was 26.6 % indel.
